Results as given in the DeepSol protein solubility set.

test: soluble on expression in E. coli; label from the status in PepcDB or PDB records

Sequence | soluble on expression in E. coli
MGSDKIHHHHHHMTQPQMIHPGETPEQHAAFQARIARGEKIEPGDWMPAEYRRQLIRMISQHAHSEVVGMLPEGEWITRAPTLKRKTILIAKVQDEAGHGQYLYHAAETLGVTREEMLDALLSGKAKYSSIFNYPSLTWADVGMIGWLVDGAAIKNQTMLAGCSYGPYSRAMVRICSEETFHHKQGKEMIVAYAQGTPEQKQMAQDALNRWWWPALMMLGPHDADSPNTGALVQWGIKLKTNDEVRQEFINEHVPELLEAGLTIPDPDLHQDEQGNWIHGPINWDEFWAVVKGQQGLHRERLGTRQQAHEEGAWVREAVQAYAARQLGQAAD | not soluble
MGSDKIHHHHHHMTQRQERLFVLEASSGGRLFSVNPDGSDKKVIVTGCRIPDGVAIDVLAGHVYWTNMGLPPENDGSIERVDLDGGNRTTIVPSGVTHTPKQLYLEAVGRKLYWGDREGMRVMRCDLDGSHVETLVQTGQGEDDRRDETRWCVGVAVDPAGGHLYWTQKGPSDAGLGKILRAGISLPAGESAAERGDIEVLFEGLPEPIDLELDLAERMLYWTDRGDPPRGNSVNRSPMHPPDAQRTPEILLTHLMEAIGIALDPDGGRMYVTDLAGNVYAAGLDGSNRREILVAQGNLTGIAHAVLPTGTSF | not soluble
MGSDKIHHHHHHMTQSDFFSLDGISKRFGVVQALDNVSIAFRPGEVLALVGENGAGKSTMMRILEGVSGPDTGTVRHGSTPIVFGEPRDSHRAGIRVIHQEPEIVPNLTVAENIFVGELPRLAGVLLDWRKLEEQTDRVLATFGMQQDMRPRQLCGTLGPAQRQMIEIMRAIRAGGRLIAFDEPTSSLTDDEARRLFSVVRRLREKGTSIIYISHRLNEIIDLADRIVVLRDGRLVDDSPAAGASEQTIAKLMVGRNIDDLFTRETWRSGEQLLDVAGLTTDRVNDVSLRVRRGEVLGIAGLMGAGRSELAKAIVGYDRRIAGTIAMNGVPVLPNSPHAAIVAGIGFAPEDRKHEALLLFRSILDNAALCVPDKTSSFGFFNRRKAMEIVSPLAAKMSIKAPNLDEQVSKLSGGNQQKVVLARWLARQPMLLILDEPTRGIDIGAKAEIYRLIDELAASGIGIILISSEMPELIGLADRVLVMAGGRITAELARPDIDEATILKHAMPQSASSPGDYIQ | not soluble
MGSDKIHHHHHHMTQSHDEPMQTMMWGGNAAFIEGLYESYLQDPSSVGAEWRSYFDGLRGGAQERVHSEVQQRFYELGQHRGPVTVQVTGGASGAQQAAGALVTAYRVYGHISARNNPLKLRGVPTVPELTPEFYGLSEADLSEQVQDSPFSGTLRDVIAQLQDTYCGAIGFEYNYLPANERAWFQERIEKGRGQGRYGLSQDERRRLMQKLNAAEGLELYLKNRYPGVKRFGLEGGESFIPLMDRIIQQAGGRYGVKEVVVGMAHRGRLNTLVNIFGKPSGTLFDEFDGKKKLSDDPDIAGDVKYHMGYSSDVRTPGGPMHLAMAFNPSHLEIVSPVVHGSVRARQDRRGDTERKQVLPITVHGDAAVSGQGVVMETLNFSRLRGFTTGGAIRIVINNQIGFTISDPRDSRSSRYCTDVAKIANAPVMHVNGDDPEAVAFCGDLALAYRQEFGKDVFIDLICFRRNGHNEGDEPRMTQPVMYREIDQHPGTRALYAAQLEKDGVLAAGEGDKLVNDFRDRLDRGETVVEEMENAEQSKLAVDWSGYTNTHWKDDEVATAVPREKLEALGLKLTQVPEGFRVHRTVERTVIKAREAMARGEQPLDWGMGEMLAYASLLDEGFGLRLDGQDSGRGTFVHRHAVLHNQDAVDPLSEEYMALAHLSPEQGRVEVIDSTLSEEAVLAFEYGYSTSEPKALVAWEAQFGDFANGAQAVVDQFLSAGESKWQRLSGLTMLLPHGYEGAGPEHSSARLERYLQLCAQKNMQVVVPSSAAQIFHLLRRQVLRPYRKPLIVMTPKSLLRNKHAMSPLSDLYDGVFHEVIGDAEVQNARRVVLSSGKLHWELTEAREKDKEGYAGTALVRLEQLYPFPAEQVKAELAKHPGAQVVWAQEEPENQGAWLMIWEDLEHCLQPGQTLTHASRPRSASTAVGYTSVHVREQAKVIADALGEPITRQDVDAQVPLTEEASAQG | not soluble
MGSDKIHHHHHHMTRSAEPRVLQFCHGYDGPFLDCARQYASLFAGTPYKVTTVFLTGRSDPEVAARCASDEVLFLEYGSRDIRGLKLKAIRDLREIARSRDFRFCIAHRFKPIWIASLATRLPIVGVHHAFGDYQRLSRKVFAGLMSKRLSLLAVSDAVRDDIRRCLPKWPAERIETLYNRIDVAALQAEQVERLSARRQLRLPDEAWVVGNVGRLHPDKDQATLLRGFAAALPRLPQNSLLAILGSGRLEEQLKDLACELGIGERVLFLGQVEEARRYFKAFDAFALSSDHEPFGMVLLEAMVAGVPLIATACGGAREVVEGVGILFPLGDETALAEGLTHLAALDRRQREACARLMLERLETRFSDAAVRREFWRLPTIAGFASESAC | not soluble
MGSDKIHHHHHHMTRSFYWVDHSTQTFAERDLSKTVVVLPIAAVEQHGPHLPVDVDAAINAEIIRRTVARLQPDTDVLFLPPMMVGKSDEHIAFPGTLAISGETLRHVWLDLARSVKRAGAAKLILFNSHGGQMALMDIVCRDIRIELGMLAVSCSWFRIAPVEDLFSRAEIDHGIHGGDIETSMMLAIAPERVAMDKAENFVPLTVAIEKSGSMLTAEGAVGFGWQAQDLHPAGVCGNASNATAQKGQIVLDRAADGLVSLIAATQAFDLSQLTSQTRFSNLCRARRIP | not soluble
MGSDKIHHHHHHMTSKIDGLSVSSGLHRRYWNGMVADLWSVDCQSDAGGQYVSSDPRLFILLDAAGEDGADLSMAEGGGKRISGAMARAAHFIPAGLELSTAITGVKSLRHLDLHFDADILRHRLGEDAGLAALHQPRYLLDDPRLLALAELIAADVANPHPLHDLYGDGLVSALLIDVLNIRPTPTHQLPNRKRSKLAAWQLRRVCDFIEAHCLRTIRLEELAGLAGLSPTYFSHAFKASTGLSPHQWQMKARIETVKQRLRDPAVPLTVIAAETGFADAAHFARSFRRAVGLSPSEWRRVRLN | not soluble
MGSDKIHHHHHHMTSLKQQLLDVKGGRNFRELGGYQTVSGKKIKMHKLIRSGHLADLLKEDQEYLRRYGLKYDIDLRTSFERNKQPDRKISGVEYFADPVFDEDLTNSTMSISDMARESQDPGWGYQRMLWAYKNMATGKNANKAYQHLFEVLLANEKDSESVLFHCTAGKDRTGFGAILILTALGVPMKTIEKDYLFTNEVIKDFVSQLLAKEKAAGADDSLLATFRDLQTVQPAYFKYLLDVINRNYGSINAYLHQQIGLSNADLLDLRTIYLEK | not soluble
MGSDKIHHHHHHMTTEIRALYTRLPAIDRLLRDPAFSPLLAQHGHSQVVAQLRQMLDEAREQISQRQTLPDWSHDWQHACEQRLTAGQRSALRPVFNLTGTVLHTNLGRAIQAESAVEAVASAMRAPVTLEYDLDDAGRGHRDRAIADLLCQITGAEDACIVNNNAAAVLLMLAATASGREVVVSRGELVEIGGAFRIPDVMRQAGCQLHEVGTTNRTHAKDYRQAVNDNTALLMKVHTSNYSIEGFTKAVDEAELAAIGRELDVPVVADLGSGSLVDLSQYGLPKEPMPQEMIAAGVSLVSFSGDKLLGGPQAGIIVGKRALIAQLQSHPLKRALRADKMTLAALEATLRLYQHPEALREKLPTLRLLTRPAEEIRRLAERLQPDLAAHYADFAVSVAACQSQIGSGSLPVDRLPSAALTFTPHDGRGSRLEALAARWRALPCPVIGRIYDGRLWLDLRCLEDETRFMEMLLR | not soluble
MGSDKIHHHHHHMTTHLTGTRDEWLTARRALLDAEKTLTRHSDALARRREALPWVRVDKTYRFDTEHGAATLDDLFDGRSQLLVYHFMFGPDYKAGCPSCSALADGFDGFAVHLANHDVTLAAVSRAPLAKLLAYRQRMGWRFPWASSEGGAFNFDFNVSFTEAQQRTGDVEYNYARAAHAMDVDPPPAAVAQFAATCGTDAATYARDRPGMSAFVREDGVVYHTYSTYARGLDALWGMYAWLDRAPLGRNETGVWWRRHDEYARD | not soluble
MGSDKIHHHHHHMTTKYQTIISNIEQDIQKQRLKKGDKLPSIRVLSKVYYCSKDTVQRALLELKYRHLIYAVPKSGYYVLGNVSMPDNVLNLSLEDYNNMAYEDFRLCLNEALSAKDKYLFHYYHKTEGLEELREALLLYLAENSVYSNKDQLLITSGTQQALYILSQMPFPNTGKTILLEKPTYHRMEAIVAQLGLPYQTISRHFNGLDLELLESLFQTGDIKFFYTISRFSHPLGLSYSTKEKEAIVRLAQRYQVYILEDDYLGDFVKLKEPPIHYYDTHHRIIYLKSFSMSVFPALRIGALVLPSGLKPHFLTQKSLIDLDTNLLMQKALALYLENGMFQKNLRFIKRYLKQRERQLALFLKQNCPDIHYQLTPTHLVIDYTTSDSYRNFTLDKSDRIIITGKKRYLSITINQQIQSKLNSLIKNTCGKSN | not soluble
MGSDKIHHHHHHMTTLISFLGKGIADKTTGYRTATYRFDDDSKHTTPYFGLALAGYLRPERLILVGTAGSMWDVFFEQQDASDDDVLALIDAVRESRVDADMLSAQEKRLTKRLGLPVICRLIPYARDAAEQTEVLLTLAKLVHRSEEVFLDVTHGFRHLPMLALVAARYLAHVKDVKVRGLYYGALEMTSTNGETPVLQLDGMLQMLDWVESLATYNKDGDYGVFASLLQQDGLPEGKAKQLTRAAYFERSSNPVKARETLGSVFSAIKTHNGPMGVLFRDALTERINWFKEPDRAAWELALADAYLERRDYVRAVIYLYESFVTRAVLEHKLNPNDFSERDEAWKDARQDNKQVRKLEYLRNALAHGIKSDDKEIIRMVNDENCLDDQLKKFRRSLFN | not soluble
MGSDKIHHHHHHMTTRLQDIIQPEIFTEYVVQRTTEKSALVQSGIIERNAEFDALASGPNTLVNMPFWNDLTGDSEVIRDEGNLTAGKITSGKDVARKQGRARMWGASGLSALLSGDDPMRAIADLVADYWIRQDQKMLLATLEGIFNSESMADKVLDITGEPGSDALLDGDSFIDAGQLMGDAKDLLTGVMMHSAVEAYLAKRQLIEYVQEADQTDRIPYFMNKRVIVDDAMPYDTQTKEGVIYLFGTGAIASGVGSHPNILPTEVDRNSQSSSGEDFLINRRIQILHPRGVKWTENNVSDVFPTNEELADGSNWERVYEPKAIRIVKFKFKTELDVDGA | not soluble
MGSDKIHHHHHHMTVCVAVKVQDCIVFAADSTTSLQAVGANGEHVTMNTYDHANKLFNLRKGCPVAAMTAGIGNFGGSSISTVSKDFRSLIDRRAEGYALNWENYTIEEIVGLARKYFFEERFSSLSEKPQGSFQYWVGGYSSGEQMGEVWQFQIHNGECLEPQCSISRNVASGLAWGGAPEAINRLILGYGQRIGDALVEGGLDASLVPQAIDGIARYTQCSLVHAAMPTGDAIDLAKFLAETTKQFVRFMPGSNSVGGDLDIATITKHENFKWIARKHFYNTRINPLETNHA | not soluble
MGSDKIHHHHHHMTVDPSHTIPVSVTGAFCSLNCPHCGAHYLRHMISVDEIPALVKKGYRSFLISGGMLPDGSIPFEKYYEHLKELKESHGLLYNFHVGFQKSKVAKELADVVSMDFFGDETVLKSIYGLALTPQEILDIAHFYENVVFHITVGITGGKITHEEKALEILSQETDTVVLNVFIPTPGTKFGKSFPPDLQEVVKLFEKARKLFKRVILGCMQPRGEYRKKLQSELKDLVDVITKPVGGTGEFKGCCAFIGRG | not soluble
MGSDKIHHHHHHMTVLIIGMGNIGKKLVELGNFEKIYAYDRISKDIPGVVRLDEFQVPSDVSTVVECASPEAVKEYSLQILKNPVNYIIISTSAFADEVFRERFFSELKNSPARVFFPSGAIGGLDVLSSIKDFVKNVRIETIKPPKSLGLDLKGKTVVFEGSVEEASKLFPRNINVASTIGLIVGFEKVKVTIVADPAMDHNIHIVRISSAIGNYEFKIENIPSPENPKTSMLTVYSILRTLRNLESKIIFG | soluble
